The target in the experiment is full-length human LRRK2 (leucine-rich repeat kinase 2) (human) (UniProt Q5S007). Description: cryo-EM structure.

Regarding “full-length human LRRK2 (leucine-rich repeat kinase 2) (from UniProt Q5S007 1-2527) (enzyme)”, the stoichiometry N (commonly the number of molecules, sites or subunits per partner or assembly) was 2.
